Patent US20250340591A1, “COMPOSITION FOR PREVENTING OR TREATING INFLAMMATORY BOWEL DISEASE CONTAINING NOVEL COMPOUND” (ANYGEN CO., LTD., priority 2021, published 2025)
Square brackets hold non-standard residues; d marks the D form. Ends that are not written are not given here. Peptide text beside a SMILES is read from it. * marks the point of attachment. His(Trt) = N[C@@H](Cc1cn(C(c2ccccc2)(c2ccccc2)c2ccccc2)cn1)C(=O)O; dPhe(4-CF3) = N[C@H](Cc1ccc(C(F)(F)F)cc1)C(=O)O; dPhe(4-Me) = Cc1ccc(C[C@@H](N)C(=O)O)cc1; d2Nal = N[C@H](Cc1ccc2ccccc2c1)C(=O)O; Benzhydryl = c1ccc(C(c2ccccc2)*)cc1; Octanoyl = CCCCCCCC(=O)*; Boc = CC(C)(C)OC(=O)*

T1: GPR39 (Homo sapiens, UniProt O43194)
T1 sequence (O43194 1-453): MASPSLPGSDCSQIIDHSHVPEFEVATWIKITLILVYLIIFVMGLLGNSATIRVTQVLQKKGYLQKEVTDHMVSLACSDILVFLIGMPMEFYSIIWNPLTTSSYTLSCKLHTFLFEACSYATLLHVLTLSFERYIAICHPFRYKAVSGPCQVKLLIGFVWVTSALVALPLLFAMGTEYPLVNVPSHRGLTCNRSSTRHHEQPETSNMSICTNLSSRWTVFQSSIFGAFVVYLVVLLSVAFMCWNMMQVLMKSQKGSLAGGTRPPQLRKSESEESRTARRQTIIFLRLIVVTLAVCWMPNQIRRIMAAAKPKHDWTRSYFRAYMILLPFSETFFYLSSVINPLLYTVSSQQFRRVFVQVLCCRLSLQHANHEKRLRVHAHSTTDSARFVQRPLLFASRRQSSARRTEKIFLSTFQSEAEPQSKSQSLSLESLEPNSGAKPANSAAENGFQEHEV

T2: GPR39 (G protein coupled receptor 39) (UniProt O43194 1-453, limits assumed)
T2 sequence (looked up): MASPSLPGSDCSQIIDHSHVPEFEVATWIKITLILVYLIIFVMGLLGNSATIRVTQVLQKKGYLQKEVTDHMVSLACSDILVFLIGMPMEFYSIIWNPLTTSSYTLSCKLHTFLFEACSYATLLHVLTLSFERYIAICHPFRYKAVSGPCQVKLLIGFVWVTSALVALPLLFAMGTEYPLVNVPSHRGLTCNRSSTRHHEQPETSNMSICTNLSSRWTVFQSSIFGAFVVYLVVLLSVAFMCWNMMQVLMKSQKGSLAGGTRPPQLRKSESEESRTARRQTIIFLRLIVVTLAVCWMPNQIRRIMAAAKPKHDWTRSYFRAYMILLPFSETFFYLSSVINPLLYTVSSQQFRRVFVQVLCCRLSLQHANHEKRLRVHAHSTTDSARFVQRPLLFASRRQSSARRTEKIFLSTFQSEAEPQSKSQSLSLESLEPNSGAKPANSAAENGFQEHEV

T3: human GPR39 (human, UniProt O43194 1-453)
T3 sequence (looked up): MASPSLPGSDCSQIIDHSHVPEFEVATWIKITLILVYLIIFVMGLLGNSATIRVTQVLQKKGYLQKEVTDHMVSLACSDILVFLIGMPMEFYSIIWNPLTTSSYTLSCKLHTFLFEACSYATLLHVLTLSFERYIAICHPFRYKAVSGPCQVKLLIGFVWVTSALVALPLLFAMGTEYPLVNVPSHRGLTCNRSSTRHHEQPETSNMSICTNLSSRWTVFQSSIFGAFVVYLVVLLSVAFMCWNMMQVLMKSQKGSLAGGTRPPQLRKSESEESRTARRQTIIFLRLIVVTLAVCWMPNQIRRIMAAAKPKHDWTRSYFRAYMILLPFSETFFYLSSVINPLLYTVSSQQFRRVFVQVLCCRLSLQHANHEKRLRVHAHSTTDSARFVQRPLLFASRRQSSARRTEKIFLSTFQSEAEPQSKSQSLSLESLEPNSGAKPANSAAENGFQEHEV


Columns and labels:
GPR39 = target: T1, GPR39; experiment: luciferase assay system (SRE luciferase reporter gene, CV-1 cells expressing GPR39); format: cell-based; design: expressed in transfected cells; host or cells: CV-1 fibroblast cell line (Korea Cell Line Bank), adenoviral transduction at 50 MOI
[1] = target: T2, GPR39 (G protein coupled receptor 39); experiment: cell-based or functional assay
[2] = target: T2, GPR39 (G protein coupled receptor 39); experiment: cell-based or functional assay; remark: listed apart in the source
human GPR39 = target: T3, human GPR39; experiment: cell-based or functional assay

Row | ECmax (−fold induction over basal) (GPR39) [fold induction over basal] | Molecule | further results
1 | 18.8 ± 3.2 | CCCCCCCC(=O)NCCCC[C@H](NC(=O)[C@@H](N)Cc1cn(C(c2ccccc2)(c2ccccc2)c2ccccc2)cn1)C(=O)N[C@H](Cc1ccc2ccccc2c1)C(=O)N[C@@H](Cc1ccc(O)cc1)C(=O)O [HKFY-74, ((R)-2-((S)-2-((S)-2-amino-3-(1-trityl-1H-imidazol-4-yl)propanamido)-6-octanamidohexanamido)-3-(naphthalen-2-yl)propanoyl)-L-tyrosine] (H-[His(Trt)]K(Octanoyl)[d2Nal]Y-OH) | 
2 | 15.9 ± 4.12 | CCCCCCCC(=O)NCCCC[C@H](NC(=O)[C@@H](N)Cc1cn(S(=O)(=O)c2ccc(C)cc2)cn1)C(=O)N[C@H](Cc1ccc(C)cc1)C(=O)N[C@@H](Cc1ccc(O)cc1)C(=O)O [HKFY-75, ((R)-2-((S)-2-((S)-2-amino-3-(1-tosyl-1H-imidazol-4-yl)propanamido)-6-octanamidohexanamido)-3-(p-tolyl)propanoyl)-L-tyrosine] | 
3 | 14.2 ± 3.75 | CCCCCCCC(=O)NCCCC[C@H](NC(=O)[C@@H](N)Cc1cn(C(c2ccccc2)(c2ccccc2)c2ccccc2)cn1)C(=O)N[C@H](Cc1ccc(C(F)(F)F)cc1)C(=O)N[C@@H](Cc1ccc(O)cc1)C(=O)O [HKFY-76, ((R)-2-((S)-2-((S)-2-amino-3-(1-trityl-1H-imidazol-4-yl)propanamido)-6-octanamidohexanamido)-3-(4-(trifluoromethyl)phenyl)propanoyl)-L-tyrosine] (H-[His(Trt)]K(Octanoyl)[dPhe(4-CF3)]Y-OH) | 
4 | 11.6 ± 2.14 | CCCCCCCC(=O)NCCCC[C@H](NC(=O)[C@@H](N)Cc1cn(Cc2ccc(-c3ccccc3-c3nnn[nH]3)cc2)cn1)C(=O)N[C@H](Cc1ccc(C)cc1)C(=O)N[C@@H](Cc1ccc(O)cc1)C(=O)O [HKFY-77, ((R)-2-((S)-2-((S)-3-(1-((2′-(1H-tetrazol-5-yl)-[1,1′-biphenyl]-4-yl)methyl)-1H-imidazol-4-yl)-2-aminopropanamido)-6-octanamidohexanamido)-3-(p-tolyl)propanoyl)-L-tyrosine] | 
5 | 11.2 ± 1.4 | CCCCCCCC(=O)NCCCC[C@H](NC(=O)[C@@H](N)Cc1cn(C(c2ccccc2)c2ccccc2)cn1)C(=O)O [HKFY-79, N2-(Nt-benzhydryl-L-histidyl)-N6-octanoyl-L-lysine] | 
6 |  | H(Benzhydryl)K(Octanoyl)[dPhe(4-Me)]Y [HKFY-34] | EC50; SRE-luciferase reporter [1]: 7 nM; ECmax; SRE-luciferase reporter [1]: 22.4 -fold induction over basal; EC50; Reporter gene assay [2]: 6.7 nM; ECmax; Reporter gene assay [2]: 22.4 -fold induction over basal; EC50; Ca2+ influx assay (human GPR39): 2.7 nM; ECmax; Ca2+ influx assay (human GPR39): 2.4 -fold induction over basal

Row | Molecule | ECmax (−fold induction over basal) (GPR39) [fold induction over basal] | further results
7 | CCCCCCCC(=O)NCCCC[C@H](NC(=O)[C@H](Cc1c[nH]c2ccccc12)NC(=O)OC(C)(C)C)C(=O)N[C@H](Cc1ccc(C)cc1)C(=O)N[C@@H](Cc1ccc(O)cc1)C(=O)O [HKFY-78, ((R)-2-((S)-2-((S)-2-((tert-butoxycarbonyl)amino)-3-(1H-indol-3-yl)propanamido)-6-octanamidohexanamido)-3-(p-tolyl)propanoyl)-L-tyrosine] (Boc-WK(Octanoyl)[dPhe(4-Me)]Y-OH) | 11.4 ± 1.54 | 
8 | N2-(Nt-(naphthalen-1-ylmethyl)-L-histidyl)-N6-octanoyl-L-lysyl-L-phenylalanyl-L-tyrosine (H(naphthalen‑1‑ylmethyl)K(Octanoyl)FY-OH) [HKFY-10] | 14 ± 2.12 | EC50 (GPR39; CV-1 cells, GPR39 and SRE luciferase adenovirus, 6 hours treatment): 46500 ± 1100 nM
